From publication doi:10.1101/2025.02.08.637281 (bioRxiv, 2025) come the findings set out here.

Assay [1] concerns the target T1, REPRESSOR OF GA1-3 (RGA), full-length, Arabidopsis thaliana DELLA protein (Arabidopsis thaliana, UniProt Q9SLH3 1-587).
T1 sequence (looked up): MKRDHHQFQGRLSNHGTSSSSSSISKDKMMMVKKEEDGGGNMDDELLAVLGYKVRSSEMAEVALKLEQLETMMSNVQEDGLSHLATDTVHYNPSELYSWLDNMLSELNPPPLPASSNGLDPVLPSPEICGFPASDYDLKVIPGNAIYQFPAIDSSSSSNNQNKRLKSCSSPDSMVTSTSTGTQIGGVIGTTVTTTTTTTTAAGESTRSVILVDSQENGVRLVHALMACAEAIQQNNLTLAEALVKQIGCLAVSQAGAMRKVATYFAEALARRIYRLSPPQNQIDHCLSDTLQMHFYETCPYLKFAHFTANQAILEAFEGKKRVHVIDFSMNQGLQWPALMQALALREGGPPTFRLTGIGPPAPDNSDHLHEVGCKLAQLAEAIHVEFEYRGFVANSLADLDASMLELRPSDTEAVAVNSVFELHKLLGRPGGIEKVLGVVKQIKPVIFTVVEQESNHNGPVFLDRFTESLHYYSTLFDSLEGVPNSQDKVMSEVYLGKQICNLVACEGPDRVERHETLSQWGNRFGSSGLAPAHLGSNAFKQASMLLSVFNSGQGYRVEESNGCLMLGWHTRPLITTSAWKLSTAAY
Briefly: SEC-MALS. For orientation: Size exclusion chromatography separates by hydrodynamic size, large species first.

For assay [2], the target named is T2, ASK2, SKP1-like protein of Arabidopsis thaliana (Arabidopsis thaliana, UniProt Q9FHW7 1-171).
T2 sequence (looked up): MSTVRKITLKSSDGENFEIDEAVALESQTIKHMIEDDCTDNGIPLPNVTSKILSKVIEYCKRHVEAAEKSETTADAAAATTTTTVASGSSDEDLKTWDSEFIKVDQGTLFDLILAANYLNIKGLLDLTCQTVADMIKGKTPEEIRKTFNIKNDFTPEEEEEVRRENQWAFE
Briefly: SEC.

B1: GA … DWARF1A (GID1A), gibberellin receptor, GA3-bound (receptor, Arabidopsis thaliana, UniProt Q9MAA7 1-345, looked up)
chain: MAASDEVNLIESRTVVPLNTWVLISNFKVAYNILRRPDGTFNRHLAEYLDRKVTANANPVDGVFSFDVLIDRRINLLSRVYRPAYADQEQPPSILDLEKPVDGDIVPVILFFHGGSFAHSSANSAIYDTLCRRLVGLCKCVVVSVNYRRAPENPYPCAYDDGWIALNWVNSRSWLKSKKDSKVHIFLAGDSSGGNIAHNVALRAGESGIDVLGNILLNPMFGGNERTESEKSLDGKYFVTVRDRDWYWKAFLPEGEDREHPACNPFSPRGKSLEGVSFPKSLVVVAGLDLIRDWQLAYAEGLKKAGQEVKLMHLEKATVGFYLLPNNNHFHNVMDEISAFVNAEC
Turning to B1, in assay [1], the binding result is “binds”.

B2: SLEEPY 1 (SLY1), F-box protein (natural protein, Arabidopsis thaliana, UniProt Q9STX3 1-151, looked up)
chain: MKRSTTDSDLAGDAHNETNKKMKSTEEEEIGFSNLDENLVYEVLKHVDAKTLAMSSCVSKIWHKTAQDERLWELICTRHWTNIGCGQNQLRSVVLALGGFRRLHSLYLWPLSKPNPRARFGKDELKLTLSLLSIRYYEKMSFTKRPLPESK
In the case of B2, the binding result in assay [2] is given as “binds”.
